The data set deals with the molecule itself. As to the kind of experiment: crystal structure.

B1: IbpAFic2^H3717A (domain or fragment, Histophilus somni, UniProt Q06277 3482-3797, looked up)
chain: DETANKVNYQDLEDNLNLKGLISLEDDRNANFESNVLKNEKFLDEAREISKKSIPEATVKQMSHLPEFDDILTEGAKKVESRINKAITFRPSVEEFSEIQDLVKTLPKTKVIEDLSTKTNEITEALAATSKTIQRTPELKEQLKTAIEDFLQNSQGKPLTVQMIENLNHGLRPDEGEGRLLYKKENLTKENAVFSSPEAAKIQLAETVDFINRAKNEGIEPSVVGALVYQRLIAYAPFAEGNGRMARVIVNKILLDAGYPAFTKFSDEFEPQIIPQTKASTKSATSSEVVVEFLKELAKKGSKEDNEQNLEKTDRT
As for B1, the binding result was “binds”.

For the origin of these results see PMC2920259 (Nature structural & molecular biology, 2010).
